Patent US12144869B2, “Anti-ROR1 antibody conjugates, compositions comprising anti ROR1 antibody conjugates, and methods of making and using anti-ROR1 antibody conjugates” (Sutro Biopharma, Inc., priority 2022, dated 2024)
Residue numbers refer to the chain shown, from its start. Like-named read-outs stand apart in the source and are kept apart here.

B1: SRP2196-C02 (antibody, V domains shown)
VH: EVQLVESGGGLVQPGGSLRLSCAASGFNITGYHIHWVRQAPGKGLEWVGFISPNSGWTYSADSVKGRFTISADTSKNTAYLQMNSLRAEDTAVYYCARDSRRYVRPFDYWGQGTLVTVSS
VL: QAVVTQESALTTSPGETVTLTCRSSTGAVTTSNYANWVQEKPDHLFTGLIGGTNKRAPGVPARFSGSLIGDKAALTITGAQTEDEAIYFCALWYSNLWVFGGGTKLTVL
B2: SRP2196-C04 (antibody, V domains shown)
VH: B1 VH with H33Y, S52A, N54L, W57S, Y59H, S60N, D99E, R105N, F107W
VL: B1 VL
B3: SRP2196-A03 (antibody, V domains shown)
VH: B1 VH with G31Q, F50Y, W57S, Y59H, S60E, P106G, F107W
VL: B1 VL
B4: SRP2196-C03 (antibody, V domains shown)
VH: B1 VH with H33Y, F50Q, W57S, N84S, R105L, P106S, F107W
VL: B1 VL
B5: 1987-C05 HC w/hSP34 LC3: HC of lead antibody 1987-C05 co-expressed with the LC of anti-CD3 antibody "hSP34-LC3" (antibody, V domains shown)
VH: EVQLVESGGGLVQPGGSLRLSCAASGFNISDYDIHWVRQAPGKGLEWVGGIDPDDGSTDYADSVKGRFTISADTSKNTAYLQMNSLRAEDTAVYYCARDYGVFDYWGQGTLVTVSS
VL: QTVVTQEPSLTVSPGGTVTLTCGSSTGAVTSGYYPNWFQQKPGQAPRGLIGGTKFLAPGTPARFSGSLLGGKAALTLSGVQPEDEAEYYCALWYSNRWVFGGGTQLTVTG
B6: 1987-C05 HC w/hOKT3 LC1: HC of lead antibody 1987-C05 co-expressed with the LC of anti-CD3 antibody "hOKT3-LC1" (antibody, V domains shown)
VH: B5 VH
VL: DIQMTQSPSSLSASVGDRVTITCSASSSVSYMNWYQQKPGKAPKRLIYDTSKLASGVPSRFSGSGSGTEYTLTISSLQPEDFATYYCQQWSSNPFTFGQGTKLEIK
B7: 1987-C05 HC w/hUCHT1 LC3: HC of lead antibody 1987-C05 co-expressed with the LC of anti-CD3 antibody "hUCHT1-LC3" (antibody, V domains shown)
VH: B5 VH
VL: DIQMTQSPSTLSASVGDRVTITCRASQDIRNYLNWYQQKPGKAPKLLIYYTSRLHSGVPSRFSGSGSGTEYTLTISSLQPDDFATYYCQQGNTLPWTFGGGTKVEIK

What was measured:
[1] = tested on: ROR1 negative MCF7 cells; experiment: In vitro cell killing of ROR1 ADCs on MCF7; type: cell-based; details: for EC50: read-out: MCF-7 EC50
Procedure: (§1) Anti-ROR1 antibody was conjugated to different linker-warheads described herein at different DARs and the cell killing activity of the ADCs were evaluated on ROR1 positive Ntera-2 cell and ROR1 negative MCF7 cells.
(§2) Ntera-2 or MCF7 cell at 625 cells/25 μL were seeded in a 384-well flat bottom white polystyrene plate one day before the assay start. ADCs were formulated at 2× starting concentration. Filter sterilized samples were serial diluted (1:3) under sterile conditions and added onto cells in triplicates. Plates were cultured at 37° C. in a CO2 incubator for 120 hours. For cell viability measurement, 30 microliter of Cell Titer-Glo® reagent (Promega Corp, Madison, WI) was added into each well, and plates processed as per product instructions. Relative luminescence was measured on an ENVISION® plate reader (Perkin-Elmer; Waltham, MA). Relative luminescence readings were converted to % viability using untreated cells as controls. Data was fitted with non-linear regression analysis, using log (inhibitor) vs. response, variable slope, 4-parameter fit equation using GraphPad Prism.
(§3) To evaluate if the cell killing activity of anti-ROR1 ADCs is dependent on antibody binding to ROR1 expressed on cell surface, the same linker-warheads (LP3, LP4) were conjugated to an anti-GFP antibody and the cell killing of the anti-ROR1 and anti-GFP ADCs were evaluated in cell killing assays on ROR1 positive Ntera-2 cell and ROR1 negative MCF7 cells.

[2] = tested on: ROR1 positive Ntera-2 cell; experiment: In vitro cell killing of ROR1 ADCs on Ntera-2; type: cell-based; details: for EC50: read-out: NTERA-2 EC50
Procedure: as §1, §2
as §3, with “cells. […]” for “cells.”

[3] = target: T1, human ROR1-Fz (Homo sapiens, UniProt Q01973); experiment: Biacore off-rate and kinetic analysis, ROR1-Fz; type: binding; details: Table 11; SP34 light chain
T1 construct: Frizzled (Fz, residues 165-305); His6 (C); purchased Acro Biosystems; host or cells: HEK293
Procedure: (§4) Anti-Fc polyclonal antibodies were immobilized onto a CMS chip (GE Life Sciences) using amine coupling chemistry (from Amine Coupling Kit, GE Life Sciences). The immobilization steps were carried out at a flow rate of 25 μL/min in 1×HBS-EP+buffer (GE Life Sciences; 10× Stock diluted before use). The sensor surfaces were activated for 7 min with a mixture of NHS (0.05 M) and EDC (0.2 M). The Anti-Fc antibodies were injected over all 4 flow cells at a concentration of 25 ug/ml in 10 mM sodium acetate, pH 4.5, for 7 min. Ethanolamine (1 M, pH 8.5) was injected for 7 min to block any remaining activated groups. An average of 12,000 response units (RU) of capture antibody was immobilized on each flow cell.
(§5) Off-rate and kinetic binding experiments were performed at 25° C. using 1×HBS-EP+buffer. Test and control antibodies were injected over the anti-Fc surface at concentrations of 5-10 μg/mL for 12 seconds at a flow rate of 10 μL/min on flow cells 2, 3 and 4, followed by a buffer wash for 30 seconds at the same flow rate. Kinetic characterization of antibody samples was carried out with a range of antigen concentrations from 1-100 nM and 1 injection of 0 nM antigen (for example, 100, 50, 25, 6.25, 1.56 and 0 nM). After capturing ligand (antibody) on the anti-Fc surface, the analyte (hROR1, Fz or Kr domains, Acro Biosystems, Delaware) was bound for 180 seconds, followed by a 600 second dissociation phase at a flow rate of 50 μL/min. Between each ligand capture and analyte binding cycle, regeneration was carried out using 2 injections of 10 mM Glycine pH 2.0 for 30 seconds at 30 μL/min, followed by a 30 second buffer wash step.
(§6) The data was fit with the Biacore T200 Evaluation software, using a 1-1 Langmuir binding model. KD (affinity, nM) was determined as a ratio of the kinetic rate constants calculated from the fits of the association and dissociation phases.
(§7) For anti-CD3-LC-containing IgGs that had detectable ROR1-binding in ELISA (1944-A07 and 1987-C05 variants), those antibodies were further tested for binding by surface plasmon resonance (SPR). Binding kinetics were assessed to the ROR1-frizzled domain (hROR1-Fz) or the ROR1-extracellular domain (hROR1) for 1944-A07 and 1987-C05 variants, respectively. Briefly, anti-ROR1 antibodies were captured via anti-human Fc polyclonal antibodies immobilized to a CM5 chip, and ROR1 recombinant proteins were flowed across the surface to assess binding kinetics. hROR1 or hROR1-Fz domain (Acro Biosystems, Delaware) binding was tested at 100, 50, 25, 6.25, 1.5625 nM. The data was fit with the Biacore™ T200 Evaluation software, using a 1-1 Langmuir binding model. KD (affinity, nM) was determined as a ratio of the kinetic rate constants calculated from the fits of the association and dissociation phases.

[4] = Differential scanning fluorimetry (protein thermal shift; TM1/TM2); type: physicochemical; details: Table 11; melting temperature of the Fab domain
Procedure: A protein thermal shift assay was carried out by mixing the protein to be assayed with an environmentally sensitive dye (SYPRO Orange, Life Technologies Cat #S-6650) in a phosphate buffered solution (PBS), and monitoring the fluorescence of the mixture in real time as it underwent controlled thermal denaturation. Protein solutions between 0.2-2 mg/mL were mixed at a 1-1 volumetric ratio with a 1-500 PBS-diluted solution of SYPRO Orange (SYPRO Orange stock dye is 5000× in DMSO). 10 μL aliquots of the protein-dye mixture were dispensed in quadruplicate in a 384-well microplate (Bio-Rad Cat #MSP-3852), and the plate was sealed with an optically clear sealing film (Bio-Rad Cat #MSB-1001) and placed in a 384-well plate real-time thermocycler (Bio-Rad CFX384 Real Time System). The protein-dye mixture was heated from […], at increments of 0.1° C. per cycle (˜1.5° C. per minute), allowing 3 seconds of equilibration at each temperature before taking a fluorescence measurement. At the end of the experiment, the transition melting temperatures (TM1 and TM2) were determined using the Bio-Rad CFX manager software. TM1 represents the melting temperature of the Fc domain. TM2 represents the melting temperature of the Fab domain.
For the thermal stability of an antibody, the first melting peak (Tm1) coincides with the unfolding of the CH2 domain (FC stability), while the second melting peak (Tm2) occurs upon unfolding of the Fab domain.

[5] = target: T2, hROR1 (ROR1-extracellular domain) (Homo sapiens, UniProt Q01973); experiment: Biacore off-rate and kinetic analysis, hROR1 extracellular domain; type: binding; details: for KD (SPR binding kinetics): hROR1, 1987-C05 variants
T2 construct: the ROR1-frizzled domain (hROR1-Fz) or the ROR1-extracellular domain (hROR1); purchased Acro Biosystems
Procedure: as §4, §5, §6, §7

[6] = Table 13, ROR1 negative MCF7, 120 hours
[7] = Table 13, ROR1 positive Ntera-2, 120 hours
[8] = Homo sapiens, Table 13, ROR1 negative MCF7, 120 hours
[9] = NTERA2, Table 13, ROR1 positive Ntera-2, 120 hours
[10] = Table 7, sample ROR1 ECD, 1987-C05 HC with different LCs

Molecule | MCF-7 Span [1, 6] [%] | NTERA-2 Span [2, 7] [%] | Biacore human ROR1-Fz ka [3] [M⁻¹ s⁻¹] | Biacore human ROR1-Fz kd [3] [s⁻¹] | TM2 (° C.) [4] [°C] | further results
CC[C@@]1(O)C(=O)OCc2c1cc1n(c2=O)Cc2c-1nc1cc(F)c(C)c3c1c2[C@@H](NC(=O)CO)CC3 [Dxd] | 63 | 99 | – | – | – | EC50 [1, 6]: 0.83 nM; EC50 [2, 7]: 0.26 nM
COc1cccc2c1C(=O)c1c(O)c3c(c(O)c1C2=O)C[C@@](O)(C(=O)NCCN)C[C@@H]3O[C@H]1C[C@H]2[C@H](O[C@@H]3[C@@H](OC)OCCN32)[C@H](C)O1 [PNU-EDA] | 85 | 99 | – | – | – | EC50 [1, 8]: 0.3 nM; EC50 ([1]; Homo sapiens, Table 15, ROR1 negative MCF7 cells, 120 hours, Cell Titer-Glo): 0.25 nM; MCF-7 Span (%) ([1]; Table 15, ROR1 negative MCF7 cells, 120 hours, Cell Titer-Glo): 85%; EC50 [2, 9]: 0.026 nM; EC50 ([2]; NTERA2, Table 15, ROR1 positive Ntera-2 cells, 120 hours, Cell Titer-Glo): 0.027 nM; NTERA-2 Span (%) ([2]; Table 15, ROR1 positive Ntera-2 cells, 120 hours, Cell Titer-Glo): 98%
CC[C@@]1(O)C(=O)OCc2c1cc1n(c2=O)Cc2c-1nc1cc(F)c(C)c3c1c2[C@@H](NC(=O)CN)CC3 [Gly-Exatecan] | 73 | 98 | – | – | – | EC50 [1, 8]: 0.169 nM; EC50 [2, 9]: 6.72 nM
B1 | – | – | 119000 | 0.00036 | 67 | –
B2 | – | – | 131000 | 0.000704 | 70 | –
B3 | – | – | 169000 | 0.000275 | 70 | –
B4 | – | – | 143000 | 0.000461 | 69 | –
B5 | – | – | – | – | – | KD [5, 10]: Not detected; KD (SPR binding kinetics) [5]: no detectable binding
B6 | – | – | – | – | – | KD [5, 10]: Not detected; KD (SPR binding kinetics) [5]: no detectable binding
B7 | – | – | – | – | – | ka1 [5, 10]: 566000 M⁻¹ s⁻¹; kd1 [5, 10]: 0.000645 s⁻¹
